The target in assay [1] is T1, αCD3-αEGFR-PD-1-OX40L GEMINI-Exos (human).
T1 construct: Engineered exosome from Expi293F cells co-transfected with the αCD3-αEGFR-PDGFR TMD and PD-1-CD9-OX40L constructs; Both fusions sit on the same exosome; also called genetically engineered multifunctional immune-modulating exosomes
Kind of assay: flow cytometry on BT-20 cells, anti-HA detection. Background: In flow cytometry, cells or beads pass a laser one at a time.
Method: BT-20 cells were treated with 100 U/mL IFN-γ (BioLegend) for 2 days to induce expression of PD-L1. […] Briefly, cells (300,000 cells per tube) were stained with 100 μg mL⁻¹ of exosomes for 30 minutes at 4° C. Cells were washed three times with PBS containing 2% FBS and stained with an anti-HA antibody (2-2.2.14, from Thermo Fisher Scientific) for 30 minutes at 4° C. […] Thereafter, cells were washed and resuspended in PBS containing 2% FBS, followed by analysis using a BD Fortessa X20 flow cytometer. Data were processed by FlowJo_V10 software (Tree Star Inc., Ashland, OR).

Assay [2] concerns the target T1, αCD3-αEGFR-PD-1-OX40L GEMINI-Exos. In words: assay not named. As for the experimental part:
FIG. 3. […] (A) Immunoblot analysis of purified exosomes. […] Data are shown as mean±SD of duplicates. […] The levels of secreted IL-2 were measured by ELISA.
ELISA analysis of binding of engineered exosomes to ligands and receptors. […] High-binding 96 well plates (Greiner Bio-One, Monroe, NC) were coated with various concentrations of exosomes overnight at room temperature. Following extensive washing with PBST, wells were blocked with PBS containing 1% BSA for 2 hours at room temperature, followed by extensive washing with PBST. Corresponding ligands or receptors ([…]; PD-L1-hFc and PD-L2-hFc from PeproTech, Inc. and OX40-hFc from BioLegend) were added and incubated for 2 hours at room temperature, followed by extensive washing with PBST. Goat anti-human IgG-HRP was subsequently added for 1-hour incubation at room temperature, followed by extensive washing. QuantaBlu fluorogenic peroxidase substrate (Thermo Fisher Scientific, MA) was then added.

B1: PD-L2 on IFN-γ stimulated BT-20 cells (ligand, human, UniProt Q9BQ51 20-273, looked up)
chain: LFTVTVPKELYIIEHGSNVTLECNFDTGSHVNLGAITASLQKVENDTSPHRERATLLEEQLPLGKASFHIPQVQVRDEGQYQCIIIYGVAWDYKYLTLKVKASYRKINTHILKVPETDEVELTCQATGYPLAEVSWPNVSVPANTSHSRTPEGLYQVTSVLRLKPPPGRNFSCVFWNTHVRELTLASIDLQSQMEPRTHPTWLLHIFIPFCIIAFIFIATVIALRKQLCQKLYSSKDTTKRPVTTTKREVNSAI
notes: whole, on cells; BT-20 cells also carry PD-L1 and EGFR; also called PD-L2^+ BT-20 cells
Consider B1, for which, in assay [1], the binding result is listed as “binds”.

B2: PD-L2-hFc (Fc fusion, human, UniProt Q9BQ51 20-220, looked up)
chain: LFTVTVPKELYIIEHGSNVTLECNFDTGSHVNLGAITASLQKVENDTSPHRERATLLEEQLPLGKASFHIPQVQVRDEGQYQCIIIYGVAWDYKYLTLKVKASYRKINTHILKVPETDEVELTCQATGYPLAEVSWPNVSVPANTSHSRTPEGLYQVTSVLRLKPPPGRNFSCVFWNTHVRELTLASIDLQSQMEPRTHPT
notes: Bought from PeproTech; also called PD-L2-Fc; not shown: human Fc (hFc) of the bought reagent
Turning to B2, the binding result in assay [2] is listed as “binds”.

B3: OX40-hFc (Fc fusion, human, UniProt P43489 29-214, looked up)
chain: LHCVGDTYPSNDRCCHECRPGNGMVSRCSRSQNTVCRPCGPGFYNDVVSSKPCKPCTWCNLRSGSERKQLCTATQDTVCRCRAGTQPLDSYKPGVDCAPCPPGHFSPGDNQACKPWTNCTLAGKHTLQPASNSSDAICEDRDPPATQPQETQGPPARPITVQPTEAWPRTSQGPSTRPVEVPGGRA
notes: Bought from BioLegend; also called OX40-Fc; biotinylated OX40-hFc; not shown: human Fc (hFc) of the bought reagent
As to B3, the binding result in assay [2] is recorded as “binds”.

Source of the values: patent US20250092143A1 (UNIVERSITY OF SOUTHERN CALIFORNIA, published 2025).
